Test results: US20180318355A1, “METHODS AND COMPOSITIONS FOR IMPROVED TISSUE REGENERATION BY SUPPRESION OF INTERFERIN-GAMMA AND TUMOR NECROSIS FACTOR-ALPHA” (Alfred E. Mann Institute for Biomedical Eng. at the …, priority 2011, published 2018)
Entries after “also recorded” stand apart in the source; their conditions may differ.

B1: IL-6: Recombinant murine IL-6 purchased from PeproTech (protein, UniProt P08505 25-211, looked up)
Interleukin-6: FPTSQVRRGDFTEDTTPNRPVYTTSQVGGLITHVLWEIVEMRKELCNGNSDCMNNDDALAENNLKLPEIQRNDGCYQTGYNQEICLLKISSGLLEYHSYLEYMKNNLKDNKKDKARVLQRDTETLIHIFNQEVKDLHKIVLPTPISNALLTDKLESQKEWLRTKTIQFILKSLEEFLKVTLRSTRQT
B2: IL-4: Recombinant murine IL-4 purchased from PeproTech (protein, UniProt P07750 21-140, looked up)
Interleukin-4: HIHGCDKNHLREIIGILNEVTGEGTPCTEMDVPNVLTATKNTTESELVCRASKVLRIFYLKHGKTPCLKKNSSVLMELQRLFRAFRCLDSSISCTMNESKSTSLKDFLESLKSIMQMDYS
B3: IL-17A: Recombinant murine IL-17A purchased from PeproTech (protein, UniProt Q62386 26-158, looked up)
Interleukin-17A: AAIIPQSSACPNTEAKDFLQNVKVNLKVFNSLGAKVSSRRPSDYLNRSTSPWTLHRNEDPDRYPSVIWEAQCRHQRCVNAEGKLDHHMNSVLIQQEILVLKREPESCPFTFRVEKMLVGVGCTCVASIVRQAA

Columns and labels:
[1] = test system: BMMSCs; assay: Cell apoptosis and cell survival assay in vitro (toluidine blue, Annexin V); conditions: single cytokine, 1-200 ng/ml, three days, toluidine blue staining
Description: Cell apoptosis and cell survival assay. 0.5×10^6 BMMSCs were seeded to 6-well culture plate and co-cultured with different doses of recombined IL-4, IL-6, IL-17A, TGF-β1, TNF-α and IFN-γ (0, 10, 20, 50, 100, 200 ng/ml) for 3 days. To measure the cell viability, the total cells were analyzed by using a cell counting kit-8 (Dojindo Molecular Technoloies, Gaithersburg, Md.) according to the manufacture's instruction. And the culture plates with cells were stained with 2% toluidine blue O and 2% paraformaldehyde (Sigma-Aldrich Corporate, St. Louis, Mo.).
For cell apoptosis analysis, the BMMSCs were stained by Annexin V-PE apoptosis detection kit I (BD Bioscience) following manufacture's protocol, and analyzed by FACS^Calibur (BD Bioscience).
IFN-γ and TNF-α synergism for apoptosis. For cell apoptosis staining, the 1×10^4 BMMSCs were seeded onto two chambers slide, IFN-γ (50 ng/ml) and TNF-α (20 ng/ml) were used to treat the BMMSCs for 24 hrs either separately or combined, Annexin V-PE apoptosis detection kit I (BD Bioscience) was used to stain the BMMSCs following manufacture's protocol, and analyzed on microscopy and FACS^Calibur (BD Bioscience). Cell viability was analyzed by using cell counting kit, and culture plates were stained with 2% toluidine blue O and 2% paraformaldehyde.
IFN-γ and TNF-α synergism for apoptosis. 0.5×10^6 BMMSCs were seeded to 6-well culture plate and co-cultured with different doses of TNF-α (0, 5, 50, 100 ng/ml) with or without IFN-γ (50 ng/ml) for I day. Then, the BMMSCs were stained by Annexin V-PE apoptosis detection kit I (BD Bioscience) following manufacture's protocol, and analyzed by FACS^Calibur (BD Bioscience).

[2] = test system: BMMSC-mediated bone formation; assay: BMMSC-mediated bone formation, subcutaneous BMMSC/HA/TCP implantation; type: in vivo; conditions: 200 ng cytokine in hydrogel co-implanted with BMMSCs/HA/TCP, immunocompromised mice, 8 weeks post implantation
Description: BMMSC-mediated bone formation. Approximately 4.0×10^6 BMMSCs were mixed with hydroxyapatite/tricalcium phosphate (HA/TCP) ceramic particles (40 mg, Zimmer Inc., Warsaw, Ind.) as a carrier and subcutaneously implanted into the dorsal surface of 8-10 weeks old immunocompromised mice or C57BL/6J mice. At eight weeks post-implantation, the implants were harvested, fixed in 4% paraformaldehyde and then decalcified with 5% EDTA (pH 7.4), followed by paraffin embedding. The 6 μm paraffin sections were stained with hematoxylin and eosin (H&E) and analyzed by an NIH Image J. Five fields were selected and newly formed mineralized tissue area in each field was calculated and shown as a percentage to total tissue area.
Cytokines in BMMSC-mediated bone formation. Approximately 4.0×10^6 of littermate-derived or autologous BMMSCs were mixed with HA/TCP ceramic powders (40 mg, Zimmer Inc.), and hydrogel (Glycosan Biosysterms, Salt Lake City, Utah) with 200 ng IFN-γ, TNF-α, IL-4, IL-6 or IL-17A were covered on the surface of the implants as a slow released system. At eight weeks post-implantation, the implants were harvested and newly formed mineralized tissue areas were analyzed. […]
BMMSC-mediated bone formation. Approximately 4.0×10^6 of littermate-derived or autologous BMMSCs were mixed with hydroxyapatite/tricalcium phosphate (HA/TCP) ceramic particles (40 mg, Zimmer Inc., Warsaw, Ind.) as a carrier and subcutaneously implanted into the dorsal surface of 8-10 weeks old immunocompromised mice or C57BL6 mice. When aspirin was used, BMMSCs were treated with 50 μg/ml aspirin for 2 days and mixed with HA/TCP particles to be subcutaneously implanted into immunocompromised mice. When IFN-γ and TNF-α were used in the subcutaneous implants, 200 ng IFN-γ, TNF-α or/and 100 μg aspirin mixed with 250 μl hydrogel as a slow released system and subcutaneously co-implanted to the dorsal surface of 8-10 weeks old immunocompromised mice.
At eight weeks post-implantation, the implants were harvested, fixed in 4% paraformaldehyde and then decalcified with 5% EDTA (pH 7.4), followed by paraffin embedding. The 6 μm paraffin sections were stained with hematoxylin and eosin (H&E) and analyzed by an NIH Image J. Five fields were selected and newly formed mineralized tissue area in each field was calculated and shown as a percentage to total tissue area.

[3] = test system: BMMSCs; assay: Osteogenic differentiation assay (alizarin red staining); type: cell-based, mouse; conditions: 200 ng/ml cytokine, osteogenic media, 14 days, alizarin red
Description: Osteogenic differentiation assay. BMMSCs were cultured under osteogenic culture condition media containing 2 mM […] (Sigma-Aldrich), 100 μM L-ascorbic acid 2-phosphate and 10 nM dexamethasone (Sigma-Aldrich). Different doses of IFN-γ (50, 200 ng/ml) were added to the osteogenic culture condition media every 3 days. After the osteogenic induction, the cultures were stained with alizarin red. Expressions of Runx2, ALP, and OCN were assayed by Western blot analysis.

Molecule | BMMSC death / viability [1] | new bone formation in BMMSC implants [2] | mineralized nodule formation / osteogenic differentiation of BMMSCs [3] | new bone formation in BMMSC implants ([2]; listed as IL-17)
TGF-β1: recombined TGF-β1 cytokine co-cultured with BMMSCs | no effect | – | – | –
B1 | no effect | a reduction in new bone formation; also recorded: slightly inhibited | no inhibition effect | –
B2 | no effect | a reduction in new bone formation; also recorded: slightly inhibited | reduced mineralized nodule formation; also recorded: partial inhibition | –
B3 | no effect | no inhibitory effect | no inhibition effect | no inhibitive effect
